Results published in patent publication US20140105889A1 (published 2014).
Substitutions are numbered along the chain they refer to.

T1: human FcγRIIa type R (human, UniProt P12318 36-217)
T1 construct: also called FcgRIIaR; FcγRIIa(R)
T1 chain: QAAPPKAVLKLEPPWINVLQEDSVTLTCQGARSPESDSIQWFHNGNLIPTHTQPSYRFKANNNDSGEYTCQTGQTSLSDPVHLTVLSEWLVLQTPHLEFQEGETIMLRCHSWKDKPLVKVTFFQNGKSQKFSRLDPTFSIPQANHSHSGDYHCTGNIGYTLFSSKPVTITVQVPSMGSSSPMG

T2: human FcγRIIa type H (human, UniProt P12318 36-217)
T2 construct: also called FcgRIIaH; FcγRIIa(H)
T2 sequence: T1 chain with R133H

T3: human FcγRIIb (human, UniProt P31994 43-217)
T3 construct: also called FcgRIIb; FcγIIB
T3 sequence: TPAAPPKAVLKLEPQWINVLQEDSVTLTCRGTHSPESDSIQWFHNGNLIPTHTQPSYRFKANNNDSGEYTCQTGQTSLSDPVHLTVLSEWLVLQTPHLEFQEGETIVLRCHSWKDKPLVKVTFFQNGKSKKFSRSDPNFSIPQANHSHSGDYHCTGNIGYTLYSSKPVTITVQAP

B1: IL6R-BP148/IL6R-L (antibody, human IgG1)
heavy: QVQLQESGPGLVKPSETLSLTCAVSGHSISHDHAWSWVRQPPGEGLEWIGFISYSGITNYNPSLQGRVTISRDNSKNTLYLQMNSLRAEDTAVYYCARSLARTTAMDYWGEGTLVTVSSASTKGPSVFPLAPSSKSTSGGTAALGCLVKDYFPEPVTVSWNSGALTSGVHTFPAVLQSSGLYSLSSVVTVPSSSLGTQTYICNVNHKPSNTKVDKKVEPKSCDKTHTCPPCPAPDYLGDDSVFLFPPKPKDTLMISRTPEVTCVVVDVSHEDPEVKFNWYVDGVEVHNAKTKPREEQYNSTYRVVSVLTVLHQDWLNGKEYKCKVSNAALPKPIEKTISKAKGQPREPQVYTLPPSRDELTKNQVSLTCLVKGFYPSDIAVEWESNGQPENNYKTTPPVLDSDGSFFLYSKLTVDKSRWQQGNVFSCSVMHEALHNHYTQESLSLSP
light: DIQMTQSPSSLSASVGDRVTITCRASQDISSYLNWYQQKPGKAPKLLIYYTSRLHSGVPSRFSGSGSGTDFTFTISSLQPEDIATYYCQQGNTLPYTFGQGTKVEIK
B2: IL6R-BP149/IL6R-L (antibody, human IgG1)
heavy: B1 heavy with Y298D
light: B1 light
B3: IL6R-BP150/IL6R-L (antibody, human IgG1)
heavy: B1 heavy with D235E, K332R
light: B1 light
B4: IL6R-BP177/IL6R-L (antibody, human IgG1)
heavy: B1 heavy with P273G, A328D
light: B1 light
B5: IL6R-BP179/IL6R-L (antibody, human IgG1)
heavy: B1 heavy with D235E, Y236L, P273G
light: B1 light
B6: IL6R-BP180/IL6R-L (antibody, human IgG1)
heavy: B1 heavy with D235E, Y236L, P273G, A328K
light: B1 light
B7: IL6R-BP183/IL6R-L (antibody, human IgG1)
heavy: B1 heavy with D239G, P273G
light: B1 light
B8: IL6R-BP184/IL6R-L (antibody, human IgG1)
heavy: B1 heavy with Y236L, D239G, P273G, A328K
light: B1 light
B9: IL6R-BP185/IL6R-L (antibody, human IgG1)
heavy: B1 heavy with P273G
light: B1 light
B10: IL6R-BP186/IL6R-L (antibody, human IgG1)
heavy: B1 heavy with P273G, Y298D
light: B1 light
B11: IL6R-G1d/IL6R-L (antibody, human IgG1)
heavy: not shown
light: B1 light
notes: also called IgG1

These binders were tested against T4, human FcγRIa (human, UniProt P12314 16-292, limits assumed) (assay: SPR (Biacore), FcγR over captured antibody; binding amount / that of IL6R-BF648/IL6R-L x100).
T4 construct: also called FcgRIa; CD64
T4 sequence (P12314 16-292 limits assumed): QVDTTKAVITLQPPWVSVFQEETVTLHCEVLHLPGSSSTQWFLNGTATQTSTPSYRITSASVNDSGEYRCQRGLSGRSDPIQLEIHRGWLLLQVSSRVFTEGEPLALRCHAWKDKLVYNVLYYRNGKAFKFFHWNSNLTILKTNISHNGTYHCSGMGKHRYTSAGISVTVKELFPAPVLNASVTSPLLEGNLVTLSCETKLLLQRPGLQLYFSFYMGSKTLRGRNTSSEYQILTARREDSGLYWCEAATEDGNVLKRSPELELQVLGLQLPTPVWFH
Protocol: (§1) According to the following method, relative binding activities were calculated for the results of analyzing interactions with the respective FcγRs.
B1 was tested, and the relative binding activity was 33 % of IL6R-BF648/IL6R-L. In the case of B2, the relative binding activity is reported as 29 % of IL6R-BF648/IL6R-L. In the case of B3, the relative binding activity is reported as 30 % of IL6R-BF648/IL6R-L. B4 was tested, and the relative binding activity was 57 % of IL6R-BF648/IL6R-L. For B5, the relative binding activity was 39 % of IL6R-BF648/IL6R-L. For B6, the relative binding activity was 29 % of IL6R-BF648/IL6R-L. With B7 the relative binding activity was 83 % of IL6R-BF648/IL6R-L. B8 was tested, and the relative binding activity was 96 % of IL6R-BF648/IL6R-L. For B9, the relative binding activity was 47 % of IL6R-BF648/IL6R-L. With B10 the relative binding activity was 43 % of IL6R-BF648/IL6R-L. B11 was tested, and the relative binding activity was 140 % of IL6R-BF648/IL6R-L.

Biological target: T1, human FcγRIIa type R
Test: as above
Protocol: as §1
For B1, the relative binding activity was 603 % of IL6R-BF648/IL6R-L. With B2 the relative binding activity was 539 % of IL6R-BF648/IL6R-L. With B3 the relative binding activity was 757 % of IL6R-BF648/IL6R-L. With B4 the relative binding activity was 691 % of IL6R-BF648/IL6R-L. In the case of B5, the relative binding activity is reported as 570 % of IL6R-BF648/IL6R-L. B6 was tested, and the relative binding activity was 602 % of IL6R-BF648/IL6R-L. B7 was tested, and the relative binding activity was 423 % of IL6R-BF648/IL6R-L. In the case of B8, the relative binding activity is reported as 436 % of IL6R-BF648/IL6R-L. For B9, the relative binding activity was 670 % of IL6R-BF648/IL6R-L. With B10 the relative binding activity was 614 % of IL6R-BF648/IL6R-L. For B11, the relative binding activity was 650 % of IL6R-BF648/IL6R-L.

The binders below were run against T2, human FcγRIIa type H in the same assay as above.
Protocol: as §1
B1 was tested, and the relative binding activity was 462 % of IL6R-BF648/IL6R-L. With B2 the relative binding activity was 401 % of IL6R-BF648/IL6R-L. For B3, the relative binding activity was 770 % of IL6R-BF648/IL6R-L. For B4, the relative binding activity was 409 % of IL6R-BF648/IL6R-L. In the case of B5, the relative binding activity is reported as 226 % of IL6R-BF648/IL6R-L. B6 was tested, and the relative binding activity was 203 % of IL6R-BF648/IL6R-L. With B7 the relative binding activity was 191 % of IL6R-BF648/IL6R-L. With B8 the relative binding activity was 131 % of IL6R-BF648/IL6R-L. For B9, the relative binding activity was 446 % of IL6R-BF648/IL6R-L. In the case of B10, the relative binding activity is reported as 368 % of IL6R-BF648/IL6R-L. In the case of B11, the relative binding activity is reported as 1670 % of IL6R-BF648/IL6R-L.

These binders were tested against T3, human FcγRIIb in the same assay as above.
Protocol: as §1
With B1 the relative binding activity was 176 % of IL6R-BF648/IL6R-L. B2 was tested, and the relative binding activity was 173 % of IL6R-BF648/IL6R-L. For B3, the relative binding activity was 183 % of IL6R-BF648/IL6R-L. B4 was tested, and the relative binding activity was 177 % of IL6R-BF648/IL6R-L. With B5 the relative binding activity was 177 % of IL6R-BF648/IL6R-L. B6 was tested, and the relative binding activity was 179 % of IL6R-BF648/IL6R-L. B7 was tested, and the relative binding activity was 164 % of IL6R-BF648/IL6R-L. For B8, the relative binding activity was 171 % of IL6R-BF648/IL6R-L. With B9 the relative binding activity was 179 % of IL6R-BF648/IL6R-L. B10 was tested, and the relative binding activity was 175 % of IL6R-BF648/IL6R-L. For B11, the relative binding activity was 62 % of IL6R-BF648/IL6R-L.

These binders were tested against T5, human FcγRIIIa type V (human, UniProt P08637 17-208, limits assumed) in the same assay as above.
T5 construct: Allotype V158 was used; also called FcgRIIIaV; FcγRIIIa(V)
T5 sequence (P08637 other isoform, or with tags, fused parts or gaps limits assumed): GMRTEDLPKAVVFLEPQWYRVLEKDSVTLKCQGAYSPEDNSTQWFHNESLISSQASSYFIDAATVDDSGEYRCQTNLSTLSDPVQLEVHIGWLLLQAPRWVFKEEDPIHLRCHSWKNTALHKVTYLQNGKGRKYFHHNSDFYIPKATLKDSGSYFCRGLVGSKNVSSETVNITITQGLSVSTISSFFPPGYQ
Protocol: as §1
In the case of B1, the relative binding activity is reported as 227 % of IL6R-BF648/IL6R-L. B2 was tested, and the relative binding activity was 186 % of IL6R-BF648/IL6R-L. B3 was tested, and the relative binding activity was 204 % of IL6R-BF648/IL6R-L. For B4, the relative binding activity was 186 % of IL6R-BF648/IL6R-L. For B5, the relative binding activity was 125 % of IL6R-BF648/IL6R-L. With B6 the relative binding activity was 100 % of IL6R-BF648/IL6R-L. With B7 the relative binding activity was 113 % of IL6R-BF648/IL6R-L. With B8 the relative binding activity was 106 % of IL6R-BF648/IL6R-L. For B9, the relative binding activity was 191 % of IL6R-BF648/IL6R-L. B10 was tested, and the relative binding activity was 143 % of IL6R-BF648/IL6R-L. For B11, the relative binding activity was 3350 % of IL6R-BF648/IL6R-L.
